Test results reported in US20220177605A1 (University of Washington, published 2022).

B1: dimerization binder DB-21 (VHH)
VHH: EVQLQASGGGFVQPGGSLRLSCAASGTTYGQTNMGWFRQAPGKEREFVSAISGLQGRDLYYADSVKGRFTISRDNSKNTVYLQMNSLRAEDTATYYCAFHDFLRMWEYWGQGTQVTVSS
modifications: AviTag biotinylated by BirA (BLI)
notes: Purified and tagged in BLI (biotinylated) and SEC; the form used in the sandwich ELISA-like assay is not clearly stated (same id used for all); not shown: C-terminal AviTag and His tag (purified form)
B2: dimerization binder DB-18 (VHH)
VHH: EVQLQASGGGFVQPGGSLRLSCAASGGYSRADDMGWFRQAPGKEREFVSAISFGETDSFYYADSVKGRFTISRDNSKNTVYLQMNSLRAEDTATYYCAYHNYTNMFEYWGQGTQVTVSS
modifications: AviTag biotinylated by BirA (BLI)
notes: Purified and tagged in BLI (biotinylated) and SEC; also called 1DB-18; not shown: C-terminal AviTag and His tag (purified form)
B3: dimerization binder DB-11 (VHH)
VHH: EVQLQASGGGFVQPGGSLRLSCAASGTTSDNDTMGWFRQAPGKEREFVSAISWNGGRDEYYADSVKGRFTISRDNSKNTVYLQMNSLRAEDTATYYCAYQDNRSWQEYWGQGTQVTVSS
modifications: AviTag biotinylated by BirA (BLI)
notes: Purified, tagged and biotinylated in BLI; not shown: C-terminal AviTag and His tag (purified form)
B4: dimerization binder DB-6 (VHH)
VHH: EVQLQASGGGFVQPGGSLRLSCAASGRFSWGEEMGWFRQAPGKEREFVSAISWAATPWQYYADSVKGRFTISRDNSKNTVYLQMNSLRAEDTATYYCADEWHIGHVSYWGQGTQVTVSS
modifications: AviTag biotinylated by BirA (BLI)
notes: as for B3

target: T1, CA-14 bound to cannabidiol (CA-14-CBD complex) (non-covalently bound cannabidiol (CBD); AviTag biotinylated by BirA where immobilised (ELISA)); test: BLI (Octet RED96), biotinylated DB on streptavidin sensor, 1 uM CA-14 pre-equilibrated with CBD
T1 construct: Same polypeptide as m1, pre-equilibrated with the small molecule cannabidiol; also called CBD-CA-14 complex; not shown: C-terminal AviTag and His tag
Source text: (§1) With the purified DB nanobodies in hand, we first sought to determine their binding affinities to the CA-14-CBD. CBD might directly bind to selected dimerization binders, which can affect the affinity measurement. To rule out this possibility, the four nanobodies were biotinylated (FIG. 7c) and immobilized on streptavidin biosensors, and the interaction with CBD was detected by BL1. Only minimal binding between CBD and the dimerization binders was detected (data not shown). Moreover, the binding-dissociation dynamics of the CA-14-CBD complex can also affect the measurement of dimerization binder affinities. To address this, the affinity was measured by a BLI assay in which the biosensor-immobilized dimerization binders were interacted with CA-14 pre-equilibrated with varied concentrations of CBD (FIG. 9a). The concentrations of the CA-14-CBD complex in equilibrium were calculated based on input CA-14 and CBD concentrations. The CA-14-CBD complex concentration was approximated to be constant because only a minimal fraction of the complex bound to the biosensor tips during the BLI assay. It was confirmed that CA-14 only interacts with the dimerization binders in the presence of CBD (FIG. 3a).
The nanobody binding kinetics was analyzed using an Octet™ RED96 system (ForteBio) and Streptavidin (SA) or Super Streptavidin (SSA) biosensors. For the anchor-binder analysis, 200 nM biotinylated anchor binders were immobilized on SSA biosensors with a binding assay buffer (1×PBS, pH 7.4, 0.05% Tween 20, 0.2% BSA, 3% methanol; Note: because CBD and THC were dissolved in methanol to make stock solutions, 3% methanol was added to the buffer to fairly compare samples and controls). Serial dilutions of CBD and THC were used for the anchor binder assays. Dissociation constants (KDS) of anchor binder-ligand interactions were calculated based on a steady-state analysis using Octet™ RED96 data analysis software.

Going from B1 to B2, the Kd rises from 56.4 nM to 553 nM (9.8-fold). The first binds more tightly here.

First: B3
Second: B4
The Kd of the first is 14-fold lower: 1380 nM for the first, 19000 nM for the second.

Compared with B1, B2 is 37-fold higher in koff: 0.000617 s⁻¹ for the first, 0.0227 s⁻¹ for the second.

Going from B3 to B4, the koff rises from 0.084 s⁻¹ to 0.182 s⁻¹ (2.2-fold).

First: B1
Second: B2
The kon of the first is 3.7-fold lower: 11000 M⁻¹ s⁻¹ for the first, 41000 M⁻¹ s⁻¹ for the second.

First: B3
Second: B4
The kon of the first is 6.4-fold higher: 61000 M⁻¹ s⁻¹ for the first, 9600 M⁻¹ s⁻¹ for the second.

target: T1, CA-14 bound to cannabidiol (CA-14-CBD …); test: BLI; biotinylated DB-18 on streptavidin biosensors, analyte CA-14 pre-equilibrated with CBD; value printed in the scheme of ternary complex formation
Source text: as §1, with “It was confirmed that CA-14 only interacts with the dimerization binders in the presence of CBD (FIG. 3a).” left out
The nanobody binding kinetics was analyzed using an Octet™ RED96 system (ForteBio) and Streptavidin (SA) or Super Streptavidin (SSA) biosensors. […] Dissociation constants (KDS) of anchor binder-ligand interactions were calculated based on a steady-state analysis using Octet™ RED96 data analysis software.

For B2, the Kd was 553 nM.
